Results from PMC4532856 (Nature Communications, 2015).

What was measured:
[1] = biological target: T1, full-length glucagon receptor purified from Sf9 membranes (Homo sapiens, UniProt P47871); experiment: negative-stain EM (random conical tilt 3D maps); purified GCGR in lauryl maltose neopentyl glycol mixed with mAb23 Fab, complex isolated by size exclusion chromatography, stained with 2% uranyl formate; conditions: both partners purified
T1 construct: glucagon receptor (GCGR), full-length construct; the small molecule NNC0640 was present throughout; also called full-length GCGR; GCGR; source: Sf9 membranes, solubilised in DDM/CHS, purified (talon resin), exchanged into lauryl maltose neopentyl glycol

[2] = biological target: T2, full-length glucagon receptor (GCGR), purified from Sf9 membranes for EM (Homo sapiens, UniProt P47871); experiment: negative-stain electron microscopy map (random conical tilt); mAb23 Fab mixed with detergent-purified GCGR (lauryl maltose neopentyl glycol, NNC0640), complex isolated by size exclusion chromatography; 2% uranyl formate stain; about 0.01 uM protein; conditions: both partners purified
T2 construct: glucagon receptor (GCGR), human, called the full-length construct; also called full-length GCGR; full-length construct

GCGR = conditions: cited from earlier work

T1 sequence (P47871 26-477): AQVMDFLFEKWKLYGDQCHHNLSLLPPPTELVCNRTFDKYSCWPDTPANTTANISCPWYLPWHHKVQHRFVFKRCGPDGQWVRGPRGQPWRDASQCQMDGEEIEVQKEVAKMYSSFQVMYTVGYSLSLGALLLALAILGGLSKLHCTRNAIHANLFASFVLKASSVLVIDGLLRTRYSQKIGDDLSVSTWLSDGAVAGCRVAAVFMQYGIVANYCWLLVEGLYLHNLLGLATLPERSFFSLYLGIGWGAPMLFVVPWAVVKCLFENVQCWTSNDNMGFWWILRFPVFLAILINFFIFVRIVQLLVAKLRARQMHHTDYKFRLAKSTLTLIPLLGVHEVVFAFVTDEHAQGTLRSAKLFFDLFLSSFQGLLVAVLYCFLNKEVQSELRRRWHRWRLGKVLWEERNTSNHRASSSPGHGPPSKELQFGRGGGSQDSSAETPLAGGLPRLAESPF
T2 sequence (P47871 26-477): as above

B1: antigen-binding fragment (Fab) of the monoclonal antibody mAb23 (Fab, V domains shown)
VH: EVQLVESGGGLVQPGGSLRLSCAASGFNIYYNYIHWVRQAPGKGLEWVAEFSPYSGSTYYADSVKGRFTISADTSKNTAYLQMNSLRAEDTAVYYCARSAAIVDWYDYFKGFDYWGQGTLVTVSS
VL: DIQMTQSPSSLSASVGDRVTITCRASQSVSSAVAWYQQKPGKAPKLLIYSASSLYSGVPSRFSGSRSGTDFTLTISSLQPEDFATYYCQQYGSYLYTFGQGTKVEIK
notes: The alignment numbers light chain 1-215 and heavy chain 216-443 in one run; also called mAb23 Fab; source: kindly provided by Genentech
Does B1 bind [1]?
Result: binds

B2: antigen-binding fragment (Fab) of the monoclonal antibody mAb23 (Fab, V domains shown)
VH: EVQLVESGGGLVQPGGSLRLSCAASGFNIYYNYIHWVRQAPGKGLEWVAEFSPYSGSTYYADSVKGRFTISADTSKNTAYLQMNSLRAEDTAVYYCARSAAIVDWYDYFKGFDYWGQGTLVTVSS
VL: DIQMTQSPSSLSASVGDRVTITCRASQSVSSAVAWYQQKPGKAPKLLIYSASSLYSGVPSRFSGSRSGTDFTLTISSLQPEDFATYYCQQYGSYLYTFGQGTKVEIK
notes: Related to mAb1, whose Fab is in PDB 4ERS (cited); also called mAb23 Fab; source: kindly provided by Genentech
Does B2 bind [2]?
Result: binds

B3: mAb23: monoclonal antibody that interacts with the ECD of GCGR; Fab kindly provided by Genentech (antibody, V domains shown)
VH: EVQLVESGGGLVQPGGSLRLSCAASGFNIYYNYIHWVRQAPGKGLEWVAEFSPYSGSTYYADSVKGRFTISADTSKNTAYLQMNSLRAEDTAVYYCARSAAIVDWYDYFKGFDYWGQGTLVTVSS
VL: DIQMTQSPSSLSASVGDRVTITCRASQSVSSAVAWYQQKPGKAPKLLIYSASSLYSGVPSRFSGSRSGTDFTLTISSLQPEDFATYYCQQYGSYLYTFGQGTKVEIK
For B3, which “effect on glucagon binding to the receptor” value (GCGR) is on record?
Its value is “preventing glucagon from binding to the receptor”.
